Experimental data reported in patent US20230407373A1 (priority 2020, published 2023).

Test system: SARS-CoV-2 gRNA and sgRNAs
Type: binding
Details: for target (unweighted spectral count in RNP capture): Probe II capture, LC-MS/MS LFQ; for background (unweighted spectral count in control): no-probe control pull-down, used as background for Probe II

Molecule	target (unweighted spectral count in RNP capture) ([…])	background (unweighted spectral count in control)	target (unweighted spectral count of the protein in the RNP capture experiment) ([…], LC-MS/MS label-free quantification, probe pool not given)	back-ground (unweighted spectral count of the protein in the control experiment) (protein background of the control (e.g. no-probe) experiment, […])
HRNPR (protein, UniProt O43390 2-633, looked up) Heterogeneous nuclear …: ANQVNGNAVQLKEEEEPMDTSSVTHTEHYKTLIEAGLPQKVAERLDEIFQTGLVAYVDLDERAIDALREFNEEGALSVLQQFKESDLSHVQNKSAFLCGVMKTYRQREKQGSKVQESTKGPDEAKIKALLERTGYTLDVTTGQRKYGGPPPDSVYSGVQPGIGTEVFVGKIPRDLYEDELVPLFEKAGPIWDLRLMMDPLSGQNRGYAFITFCGKEAAQEAVKLCDSYEIRPGKHLGVCISVANNRLFVGSIPKNKTKENILEEFSKVTEGLVDVILYHQPDDKKKNRGFCFLEYEDHKSAAQARRRLMSGKVKVWGNVVTVEWADPVEEPDPEVMAKVKVLFVRNLATTVTEEILEKSFSEFGKLERVKKLKDYAFVHFEDRGAAVKAMDEMNGKEIEGEEIEIVLAKPPDKKRKERQAARQASRSTAYEDYYYHPPPRMPPPIRGRGRGGGRGGYGYPPDYYGYEDYYDDYYGYDYHDYRGGYEDPYYGYDDGYAVRGRGGGRGGRGAPPPPRGRGAPPPRGRAGYSQRGAPLGPPRGSRGGRGGPAQQQRGRGSRGSRGNRGGNVGGKRKADGYNQPDSKRRQTNNQQNWGSQPIAQQPLQQGGDYSGNYGYNNDNQEFYQDTYGQQWK	32	1		
DOX3X (protein, UniProt O00571 2-662, looked up) ATP-dependent RNA helicase …: SHVAVENALGLDQQFAGLDLNSSDNQSGGSTASKGRYIPPHLRNREATKGFYDKDSSGWSSSKDKDAYSSFGSRSDSRGKSSFFSDRGSGSRGRFDDRGRSDYDGIGSRGDRSGFGKFERGGNSRWCDKSDEDDWSKPLPPSERLEQELFSGGNTGINFEKYDDIPVEATGNNCPPHIESFSDVEMGEIIMGNIELTRYTRPTPVQKHAIPIIKEKRDLMACAQTGSGKTAAFLLPILSQIYSDGPGEALRAMKENGRYGRRKQYPISLVLAPTRELAVQIYEEARKFSYRSRVRPCVVYGGADIGQQIRDLERGCHLLVATPGRLVDMMERGKIGLDFCKYLVLDEADRMLDMGFEPQIRRIVEQDTMPPKGVRHTMMFSATFPKEIQMLARDFLDEYIFLAVGRVGSTSENITQKVVWVEESDKRSFLLDLLNATGKDSLTLVFVETKKGADSLEDFLYHEGYACTSIHGDRSQRDREEALHQFRSGKSPILVATAVAARGLDISNVKHVINFDLPSDIEEYVHRIGRTGRVGNLGLATSFFNERNINITKDLLDLLVEAKQEVPSWLENMAYEHHYKGSSRGRSKSSRFSGGFGARDYRQSSGASSSSFSSSRASSSRSGGGGHGSSRGFGGGGYGGFYNSDGYGGNYNSQGVDWWGN	49	1		
CAPRIN1 (protein, UniProt Q14444 2-709, looked up) Caprin-1: PSATSHSGSGSKSSGPPPPSGSSGSEAAAGAGAAAPASQHPATGTGAVQTEAMKQILGVIDKKLRNLEKKKGKLDDYQERMNKGERLNQDQLDAVSKYQEVTNNLEFAKELQRSFMALSQDIQKTIKKTARREQLMREEAEQKRLKTVLELQYVLDKLGDDEVRTDLKQGLNGVPILSEEELSLLDEFYKLVDPERDMSLRLNEQYEHASIHLWDLLEGKEKPVCGTTYKVLKEIVERVFQSNYFDSTHNHQNGLCEEEEAASAPAVEDQVPEAEPEPAEEYTEQSEVESTEYVNRQFMAETQFTSGEKEQVDEWTVETVEVVNSLQQQPQAASPSVPEPHSLTPVAQADPLVRRQRVQDLMAQMQGPYNFIQDSMLDFENQTLDPAIVSAQPMNPTQNMDMPQLVCPPVHSESRLAQPNQVPVQPEATQVPLVSSTSEGYTASQPLYQPSHATEQRPQKEPIDQIQATISLNTDQTTASSSLPAASQPQVFQAGTSKPLHSSGINVNAAPFQSMQTVFNMNAPVPPVNEPETLKQQNQYQASYNQSFSSQPHQVEQTELQQEQLQTVVGTYHGSPDQSHQVTGNHQQPPQQNTGFPRSNQPYYNSRGVSRGGSRGARGLMNGYRGPANGFRGGYDGYRPSFSNTPNSGYTQSQFSAPRDYSGYQRDGYQQNFKRGSGQSGPRGAPRGRGGPPRPNRGMPQMNTQQVN	10	1		
NUFIP2 (protein, UniProt Q7Z417 1-695, looked up) FMR1-interacting protein …: MEEKPGQPQPQHHHSHHHPHHHPQQQQQQPHHHHHYYFYNHSHNHHHHHHHQQPHQYLQHGAEGSPKAQPKPLKHEQKHTLQQHQETPKKKTGYGELNGNAGEREISLKNLSSDEATNPISRVLNGNQQVVDTSLKQTVKANTFGKAGIKTKNFIQKNSMDKKNGKSYENKSGENQSVDKSDTIPIPNGVVTNNSGYITNGYMGKGADNDGSGSESGYTTPKKRKARRNSAKGCENLNIVQDKIMQQETSVPTLKQGLETFKPDYSEQKGNRVDGSKPIWKYETGPGGTSRGKPAVGDMLRKSSDSKPGVSSKKFDDRPKGKHASAVASKEDSWTLFKPPPVFPVDNSSAKIVPKISYASKVKENLNKTIQNSSVSPTSSSSSSSSTGETQTQSSSRLSQVPMSALKSVTSANFSNGPVLAGTDGNVYPPGGQPLLTTAANTLTPISSGTDSVLQDMSLTSAAVEQIKTSLFIYPSNMQTMLLSTAQVDLPSQTDQQNLGDIFQNQWGLSFINEPSAGPETVTGKSSEHKVMEVTFQGEYPATLVSQGAEIIPSGTEHPVFPKAYELEKRTSPQVLGSILKSGTTSESGALSLEPSHIGDLQKADTSSQGALVFLSKDYEIESQNPLASPTNTLLGSAKEQRYQRGLERNDSWGSFDLRAAIVYHTKEMESIWNLQKQDPKRIITYNEAMDSPDQ	10	1		
BICC1 (protein, UniProt Q9H694 1-974, looked up) Protein bicaudal C homolog 1: MAAQGEPGYLAAQSDPGSNSERSTDSPVPGSEDDLVAGATLHSPEWSEERFRVDRKKLEAMLQAAAEGKGRSGEDFFQKIMEETNTQIAWPSKLKIGAKSKKDPHIKVSGKKEDVKEAKEMIMSVLDTKSNRVTLKMDVSHTEHSHVIGKGGNNIKKVMEETGCHIHFPDSNRNNQAEKSNQVSIAGQPAGVESARVRIRELLPLVLMFELPIAGILQPVPDPNSPSIQHISQTYNISVSFKQRSRMYGATVIVRGSQNNTSAVKEGTAMLLEHLAGSLASAIPVSTQLDIAAQHHLFMMGRNGSNIKHIMQRTGAQIHFPDPSNPQKKSTVYLQGTIESVCLARQYLMGCLPLVLMFDMKEEIEVDPQFIAQLMEQLDVFISIKPKPKQPSKSVIVKSVERNALNMYEARKCLLGLESSGVTIATSPSPASCPAGLACPSLDILASAGLGLTGLGLLGPTTLSLNTSTTPNSLLNALNSSVSPLQSPSSGTPSPTLWAPPLANTSSATGFSAIPHLMIPSTAQATLTNILLSGVPTYGHTAPSPPPGLTPVDVHINSMQTEGKKISAALNGHAQSPDIKYGAISTSSLGEKVLSANHGDPSIQTSGSEQTSPKSSPTEGCNDAFVEVGMPRSPSHSGNAGDLKQMMCPSKVSCAKRQTVELLQGTKNSHLHSTDRLLSDPELSATESPLADKKAPGSERAAERAAAAQQNSERAHLAPRSSYVNMQAFDYEQKKLLATKAMLKKPVVTEVRTPTNTWSGLGFSKSMPAETIKELRRANHVSYKPTMTTTYEGSSMSLSRSNSREHLGGGSESDNWRDRNGIGPGSHSEFAASIGSPKRKQNKSTEHYLSSSNYMDCISSLTGSNGCNLNSSFKGSDLPELFSKLGLGKYTDVFQQQEIDLQTFLTLTDQDLKELGITTFGARRKMLLAISELNKNRRKLFESPNARTSFLEGGASGRLPRQYHSDIASVSGRW	11	1		
CRIP2 (protein, UniProt P52943 1-208, looked up) Cysteine-rich protein 2: MASKCPKCDKTVYFAEKVSSLGKDWHKFCLKCERCSKTLTPGGHAEHDGKPFCHKPCYATLFGPKGVNIGGAGSYIYEKPLAEGPQVTGPIEVPAARAEERKASGPPKGPSRASSVTTFTGEPNTCPRCSKKVYFAEKVTSLGKDWHRPCLRCERCGKTLTPGGHAEHDGQPYCHKPCYGILFGPKGVNTGAVGSYIYDRDPEGKVQP			6	1
FAM120C (protein, UniProt Q9NX05 1-1096, looked up) Constitutive coactivator of …: MGVQGFQEFLEKRCPGAVVPVDLLKLARTVSRQQQQQHLHRQLPPTAALAPGAPRAARGSVPLQPPLPPAALGAYSGGAGPTRHHHPAHHFHHHGQAQPGLHPPLPPPPPPQLPGARVLVDAGSALPRLYGGYQTDWVCGGQWNAMLGYLSALCQACAYPGGDGLELVVMFPGGLGKDRLAEWGRRCQAERQTAQLIVGHVGNKGTPPPRAWFLPPACLSHCVRLALIRFRVKVFQSLEDHHLEVVAFFRENGFHGLLAHDSEYALYNIPSYYSSHALKLSWNGKNLTTNQFLMQEVAKQLGLKRMNFPIFAALLGNHILPDEDLAAFHWSLLGPEHPLASLKVRAHQLVLPPCDVVIKAVSEYVSSIKDPSNLDVVGKDVFKQSQSRTEDKIERFKKAVEYYSVTTKLSSLPVGPSFLGFRNNRLGNPPLPRNQVGTISAGKPMFSHQVPQKVKYPPPFPVGPNSSLLFSSHALGESHAFSEDPMLQNSPFANWAVSYDSSASQFPNYLPSKASPPLGPDSSHSSSSDGDEPNGASSDHITEAFHHQPEWGNPNRDRGSWAQPVDTGVSEASLGDGEPHIPSLLSMSTRNHMDITIPPLPPVAPEVLRVAEHRHRRGLMYPYIYHVLTKGEIKIPVCIEDECNMELPPAALLFRSARQYVYGVLFSLAETQRKMERLAMRRRLPVEVPSVILKEWSAYKGKSPQTPELVSALTFREWTCPNLKKLWLGKAVEDKNRRMRAFLACMKSDTPSMLNPANVPTHLLLMCCVLRYMVQWPGGRILHRHELDTFLAQAVSTQLYEPDRLQELKIEKLDARGIQLAALFMSGVDTALFANDACGQPVPWEHCCPWIYFDGKLFQSKLIKAGRERVSLVELCDGQADLATKVEKMRQSILEGVNMNHPPPSALLPSPTFVPPMVPSLYPVSLYSRAMGSMPLPPQGRSRGFAGLHPIPPQGGKLEIAGMVVGQWAGSRSSRGRGSFGMQVVSVGGPGKGHGKEQTGRGSKGHKKGNKQGSSDGVSKSLELHQGRSRSQVNGNSGALIKEEKSDHRLPAPSQCALSRDSNECNNGNRYLPMNNREKNHLQEQKLETVAQRKED	14	1		
